Measured values taken from US8221993, “Methods of detecting methyl transferase activity and methods of screening for methyl transferase activity modulators” (Onco Therapy Science, Inc.).

T1: ZNFN3A1 (SMYD3) (Homo sapiens, UniProt Q9H7B4 SEQ:1-428)
T1 chain: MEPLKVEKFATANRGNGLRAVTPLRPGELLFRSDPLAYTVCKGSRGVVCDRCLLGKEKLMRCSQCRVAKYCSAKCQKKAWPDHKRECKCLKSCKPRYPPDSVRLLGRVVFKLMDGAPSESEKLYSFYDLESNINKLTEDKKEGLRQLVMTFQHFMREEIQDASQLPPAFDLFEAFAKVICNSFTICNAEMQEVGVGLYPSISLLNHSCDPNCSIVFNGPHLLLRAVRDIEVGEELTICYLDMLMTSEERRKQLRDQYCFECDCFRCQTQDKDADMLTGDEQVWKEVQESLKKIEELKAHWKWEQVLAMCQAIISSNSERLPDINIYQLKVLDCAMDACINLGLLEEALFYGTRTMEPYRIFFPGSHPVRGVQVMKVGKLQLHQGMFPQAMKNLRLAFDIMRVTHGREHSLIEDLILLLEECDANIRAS

B1: ZBE2 (Nkx2.8 ZNFN3A1-binding element) (dsDNA)
DNA 1: TTACGCCCTCCTGAAACTTGTCATCCTGAATCTTAGAGGGGCCC
DNA 2: GGGCCCCTCTAAGATTCAGGATGACAAGTTTCAGGAGGGCGTAA
B2: wtTBM (Tcf4-binding motif) (dsDNA)
DNA 1: CCCTTTGATCTTACC
DNA 2: GGTAAGATCAAAGGG

Legend:
GST = GST (UniProt P08515 P08515:1-218); test: GST control
Chain of GST (P08515 whole entry, the tested form may be a part, one chain of several): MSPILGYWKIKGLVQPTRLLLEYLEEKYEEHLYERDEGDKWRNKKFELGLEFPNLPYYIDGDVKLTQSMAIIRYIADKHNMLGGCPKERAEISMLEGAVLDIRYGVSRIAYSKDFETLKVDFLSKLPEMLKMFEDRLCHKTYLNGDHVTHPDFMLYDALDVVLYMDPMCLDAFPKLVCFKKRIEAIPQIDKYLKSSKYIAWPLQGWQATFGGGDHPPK

ZNFN3A1 (SMYD3) [1] = biological target: T1, ZNFN3A1 (SMYD3); test: in vitro binding assay; inhibited by cold competitor DNA; details: tags: GST fusion, E. coli
ZNFN3A1 (SMYD3) [2] = biological target: T1, ZNFN3A1 (SMYD3); test: specificity control; details: tags: GST fusion, E. coli
Tcf4 wild-type = Tcf4 wild-type (UniProt Q9NQB0 Q9NQB0:1-619); test: positive control; details: tags: GST fusion
Chain of Tcf4 wild-type (Q9NQB0 whole entry, the tested form may be a part, one chain of several): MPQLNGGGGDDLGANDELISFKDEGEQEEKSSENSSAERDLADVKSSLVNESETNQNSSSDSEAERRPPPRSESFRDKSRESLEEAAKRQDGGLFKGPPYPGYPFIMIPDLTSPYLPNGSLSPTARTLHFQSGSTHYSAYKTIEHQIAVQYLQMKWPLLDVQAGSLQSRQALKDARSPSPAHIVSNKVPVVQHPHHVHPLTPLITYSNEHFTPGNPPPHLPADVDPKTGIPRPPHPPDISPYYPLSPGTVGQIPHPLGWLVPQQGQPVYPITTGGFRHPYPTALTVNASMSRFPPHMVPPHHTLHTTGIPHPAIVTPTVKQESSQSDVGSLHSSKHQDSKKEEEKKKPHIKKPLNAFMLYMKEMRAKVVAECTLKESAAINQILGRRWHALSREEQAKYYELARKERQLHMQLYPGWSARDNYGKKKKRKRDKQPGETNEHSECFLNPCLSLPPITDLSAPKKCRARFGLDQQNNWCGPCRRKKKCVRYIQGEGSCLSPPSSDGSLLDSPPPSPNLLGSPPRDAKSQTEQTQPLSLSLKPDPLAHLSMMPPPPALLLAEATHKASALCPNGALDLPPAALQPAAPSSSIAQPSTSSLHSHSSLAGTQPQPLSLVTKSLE

Binder | binding result (GST) | binding result (ZNFN3A1 (SMYD3) [1]) | binding result (ZNFN3A1 (SMYD3) [2]) | binding result (Tcf4 wild-type)
B1 | no binding | binds |  | 
B2 | no binding |  | no binding | binds
